From the supplement of paper PMC12764529
± gives the half width of the 95% confidence interval.

How the values were obtained:
[1] = folding stability dG unfold from trypsin proteolysis; higher = more stable
Summary of the method: (§1)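 Digests were run with trypsin and chymotrypsin at 11 concentrations in threefold dilutions, plus a no-protease condition, on designed mini-proteins in a PA-tagged cDNA display construct. The mini-proteins were under 80 residues, had no cysteine, and were kept only when AlphaFold2 dimer inter-PAE was above 15. After sequencing, Bayesian fitting of the counts gave K50, from which unfolding free energy was derived against a sequence-predicted unfolded-state K50 and a shared folded-state K50, per protease or combined.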

[2] = folding stability dG unfold from chymotrypsin proteolysis; higher = more stable
Summary of the method: as §1

[3] = folding stability dG unfold (combined trypsin and chymotrypsin); higher = more stable
Summary of the method: as §1

Row | Sequence | folding stability dG unfold [1] [kcal/mol] | folding stability dG unfold [2] [kcal/mol] | folding stability dG unfold [3] [kcal/mol]
1 | SAGGKKIEIKEENGSLVIKVDGYLVTIEPIDGKLVATVVKKDKKTKKWKIVETKILTLDEILELLKKSAGGS [r8_174_TrROS_Hall] | 1.91 ± 0.057 | 3.034 ± 0.026 | 2.66 ± 0.099
2 | SAGGKKIKVEVKIEIKIEKNPDGSYTIRIKITVKVTNENGEKFEVKVELEITLSEEELEKLKKLLEELSAGG [r13_412_TrROS_Hall] | 3.07 ± 0.24 | 3.75 ± 0.46 | 3.5 ± 0.39
3 | SAGGKKIVIFIGPPEQMDRMQEQHPDEPVIPIPRDALQDPEPAKNLIKELQEKGKDVEIYLFKDFKPSAGGS [r8_376_TrROS] | -0.176 ± 0.31 | -0.287 ± 0.4 | -0.239 ± 0.17
4 | SAGGKKIVLFVGPPELVEELKKAYPDLPFVPIPVEVLENPEPAAEIIKELKEKGYEVVVYNFPDLKESAGGS [r8_376_TrMRF] | 1.37 ± 0.057 | 2.562 ± 0.021 | 2.21 ± 0.071
5 | SAGGKKKKIEIEIVVKKEDLEKIAEELAKKLEEAGYKVKIKKIEVEVYKNKDGKIVYVKVRIEVEVEPSAGG [r13_707_TrROS_Hall] | 3.05 ± 0.47 | 4.82 ± 0.18 | 4.65 ± 0.53
6 | SAGGKKKKIKPKEIKVRIIIEKDGKKIEIELSEEELEKIKKAPTLEEIIKELEKKGFKIVKIEIEKKSAGGS [r16_567_TrROS_Hall] | 1.19 ± 0.073 | 3.05 ± 0.059 | 2.43 ± 0.21
7 | SAGGKKKKKKKKKKKKKVKVRVRIVVENKNGEKKEIEIELKGLTLEELKKLAKELEKKGFKVKKIEIESAGG [r13_227_TrROS_Hall] | 3.28 ± 0.3 | 3.53 ± 0.16 | 3.34 ± 0.39
8 | SAGGKKKKVIIVIEAPPGMSAEEIAAAIAEKLGLPKEEIKVERFKSVEEALAAAEKEGKEVIVIEVDSAGGS [r8_245_TrROS_Hall] | 2.06 ± 0.053 | 2.56 ± 0.059 | 2.41 ± 0.096
9 | SAGGKKKKVKKKKPVYRIKIKLKNGEEIEIEAKSKEEAEKAAKELLKKLFPEKKIDEIKIVEIEKLPPSAGG [r13_887_TrROS_Hall] | 2.54 ± 0.061 | 2.69 ± 0.12 | 2.69 ± 0.16
10 | SAGGKKKKVVIKLPSTNKAVEAELVSVKKGKNKYYLEIKLPNGKKYKFPLEVIGDFKWDEGEGTLEVPSAGG [r13_211_TrMRF] | 1.79 ± 0.047 | 2.98 ± 0.05 | 2.66 ± 0.11
11 | SAGGKKKLVEITIKVPPGMTVEELIAEIAKKLPPGAKIVKVEYDKETKEIKIIVYDEKTKKKIEIKFSAGGS [r16_250_TrROS_Hall] | 1.81 ± 0.049 | 1.51 ± 0.036 | 1.64 ± 0.14
12 | SAGGKKKTAEELAEELKKKLEELGFKVVKIEKLPDGTVLITFEDGYVIKFDVKTGKITIMPKEELEKLSAGG [r13_717_TrROS_Hall] | 1.62 ± 0.11 | 2.16 ± 0.029 | 1.96 ± 0.079
13 | SAGGKKKYKLIIKIKFKKGDIDKAKKEVEAIANKIKDEFEKKGVKVKVKVSYDKDNDIVYIEVEFEVPSAGG [r13_755_TrMRF] | 3.36 ± 0.12 | 4.43 ± 0.082 | 4.24 ± 0.14
14 | SAGGKKMTFKVDEIQTHGNQIMIPIRFPDGHPFPMQIDDPEQLDNLKPGEEIKIEFRPDGSFRIEWRSAGGS [r16_2_TrROS] | 1.45 ± 0.066 | 1.65 ± 0.18 | 1.55 ± 0.17
15 | SAGGKKPERVKITIMIPFDDPDKLRNFLRNHGFKVDEVEPNKEGMLAVEFEFPGYEIEIIIMDPGAMSAGGS [r16_170_TrROS] | 2.83 ± 0.16 | 3.74 ± 0.087 | 3.35 ± 0.14
16 | SAGGKKTFKVTLTLELKVERDEETGELKTETLTLTLTIEAESEEEAEKALKELLEKLELSPELKKALSAGGS [r16_40_TrROS_Hall] | 2.17 ± 0.082 | 3.76 ± 0.064 | 3.4 ± 0.097
17 | SAGGKKVFTLDELKKLAEELNIEKIEVKEDEEGIYTFTFTDLAKKTGKEVTIKIVRNKNGELLVEIEPSAGG [r13_163_TrROS_Hall] | 1.78 ± 0.074 | 2.9 ± 0.087 | 2.53 ± 0.14
18 | SAGGKKVKIKVTIVIKVEPGESVEEIAKKLAEELGLKVEVKVEVVKRKDGSLYVVIEVEIELPEELKPSAGG [r13_590_TrROS_Hall] | 2.3 ± 0.16 | 3.18 ± 0.24 | 2.85 ± 0.56
19 | SAGGKKVVIVFDVENLTPEQIRELVRKAIESLPDPENVVIVANVTSPATVEELAELAKEHPEVKFVVGSAGG [r13_718_TrMRF] | 3.79 ± 0.11 | 3.45 ± 0.085 | 3.56 ± 0.12
20 | SAGGKLTELIRSLFEKLNVPLEPLETGPNSAIFRFPGKPGVFELPGNSRIVIFEDGLVVVVAPPNDLSAGGS [r8_297_TrMRF] | 1.51 ± 0.1 | 1.57 ± 0.093 | 1.61 ± 0.081
21 | SAGGKLTITLPPGVKEVKIEVDKETNEVKVTVTVEVTDENGKKHKVTRTFTFKLEDGETVTVTVTLPSAGGS [r16_552_TrROS_Hall] | 4.42 ± 0.27 | 5.43 ± 0.13 | 5.44 ± 0.28

Row | Sequence | folding stability dG unfold [1] [kcal/mol] | folding stability dG unfold [2] [kcal/mol] | folding stability dG unfold [3] [kcal/mol]
22 | SAGGKLTLEEIKALLKEGKEYSLEELLKKIAELLNLTVELEEEPEKVTVVKVDPETGEIVEEKEIDLSAGGS [r8_105_TrROS_Hall] | 2.01 ± 0.1 | 2.44 ± 0.036 | 2.28 ± 0.11
23 | SAGGKLTPEEIEELAKKLAEELRKEGKEVEIEVEIEVDGKLIKIKMKIDPKTKKIEIVKIEVYPKEDLSAGG [r13_37_TrROS_Hall] | 3.9 ± 0.14 | 2.93 ± 0.092 | 3.58 ± 0.21
24 | SAGGKMKLEVEILENEGTILVRFHFGDKVLEIPLPFPNLTPEDVKEAAEEIAKKLKEEYNIEEVEIESAGGS [r16_249_TrMRF] | 2.33 ± 0.13 | 3.18 ± 0.23 | 2.64 ± 0.28
25 | SAGGKMVIVKIRIKERKVKVEKTKDGKEKKVEVEEKEKEITLIVEGSEEEVKKLAEELEKLGLEVEVISAGG [r13_452_TrROS_Hall] | 1.2 ± 0.063 | 2.52 ± 0.079 | 2.28 ± 0.14
26 | SAGGKNDVKTKTYEIEKDGGKITIEFEKLPDGKYKATVTYPDGKKETLVFDLGEGKEEEFAKEIAKKKSAGG [r13_296_TrMRF] | 1.46 ± 0.12 | 3.05 ± 0.067 | 2.48 ± 0.38
27 | SAGGKNITIDDITFQPQRDNGKPRYYMEVKVELPNGNPIPITMPMDRMQNNGMSPKTFAKWIAKWLLSAGGS [r16_625_TrROS] | 1.04 ± 0.13 | 1.5 ± 0.22 | 1.3 ± 0.12
28 | SAGGKPKEITLVVKVGETVEFPEGAEVTYDKETGTVTIKLPDGRTIRVEVTYNPDTDYLVVKITVEPSAGGS [r16_122_TrROS_Hall] | 2.07 ± 0.074 | 2.41 ± 0.083 | 2.34 ± 0.13
29 | SAGGKPKIRIKIEIYTPEKKETIELEFDSVEEALEALASLPGVKVEKLPDGTIYIKIPNLIIKIEIEPSAGG [r13_143_TrROS_Hall] | 3.19 ± 0.2 | 3.57 ± 0.1 | 3.42 ± 0.3
30 | SAGGKPKKTILIPLIVPPGKPESAIKALAEFLEAKGYELERIEPVPVGDRLRLVAIFRKPDGTEIKVGSAGG [r13_421_TrMRF] | 1.66 ± 0.037 | 1.9 ± 0.11 | 1.78 ± 0.069
31 | SAGGKPKPGQEVEMKMIMLMVTKPGEITIMRMKMEMRVNPDGNVQMDMKMEMVRVPLSKDQAKELLNASAGG [r13_544_TrROS] | 2.68 ± 0.07 | 4.25 ± 0.24 | 3.69 ± 0.36
32 | SAGGKPLLIKVKVRLKNGKELTITVREGESLEEILARARELLGKPIEVEKIEVIPLPPKKEVKKKEKSAGGS [r8_285_TrROS_Hall] | 1.48 ± 0.019 | 2.86 ± 0.072 | 2.46 ± 0.093
33 | SAGGKPNEKVKIKIKNKDGSEETIEIKVDEEVKIKIKFNGEEKEITIKKGETLTITLENAEIEVEKVSAGGS [r16_456_TrROS_Hall] | 1.95 ± 0.16 | 1.83 ± 0.22 | 1.94 ± 0.31
34 | SAGGKPVRILVIAGKGIRPLEIPVDEDKTVEAEFKFGDHTIRIRVSPKEKKIEVEAPSNFKIIILEPSAGGS [r16_761_TrMRF] | 2.96 ± 0.092 | 3.14 ± 0.042 | 2.98 ± 0.12
35 | SAGGKSIHIADATLEDLVDLIANLPEPVVIHVERPVTFPVLLLENGVVAAVRTETAPATLTLTIPPELSAGG [r13_632_TrMRF] | 0.408 ± 0.021 | 0.258 ± 0.087 | 0.389 ± 0.05
36 | SAGGKSVHIPGLSFEDLRDLIRNLPEPVTIHIEMPMRYPMYKYENGKPKEWQRQEMPMTSTFKIPPDDSAGG [r13_632_TrROS] | -1.01 ± 0.47 | -0.522 ± 0.36 | -0.565 ± 0.23
37 | SAGGKTIMIMFTPDNAEEIAETIVDEFGYDVKIEKVQPMPMKDPDGKQKAPYYMIEIEIKVPDPGQPLSAGG [r13_943_TrROS] | 0.945 ± 0.033 | -0.282 ± 0.22 | 0.505 ± 0.094
38 | SAGGKTITIKVKLENGEEKTIEVKVDEVKIEKKNGKLVITFKDGKKITIPLDKIEDMSEDEIKKLLEKSAGG [r13_925_TrROS_Hall] | 2.72 ± 0.15 | 3.03 ± 0.18 | 2.97 ± 0.2
39 | SAGGKTITLPNGITITVNEDGTVTVTVTVDGKTLTVTVKVDSLEEALAAILEELRRLLKPPEVTVVKPSAGG [r13_896_TrROS_Hall] | 2.52 ± 0.097 | 3.43 ± 0.13 | 3.07 ± 0.17
40 | SAGGKTIVIKVKTKEQAKALAEELAKKLKDAGYTVTVTYDEETGVVTVTVTVKVNGKTKKITLVLELPSAGG [r13_641_TrROS_Hall] | 3.51 ± 0.074 | 3.05 ± 0.043 | 3.26 ± 0.038
41 | SAGGKTIWIFFPPDNPEEFLEELAQLPNVTDVEVWRHNDYYMIEIRLEGLPIEIHYNPEGYYMIEIELSAGG [r13_907_TrROS] | 2.39 ± 0.14 | 3.71 ± 0.074 | 3.48 ± 0.16
